These results are taken from patent publication CN115386006A (SHANGHAI XIANGYAO BIOLOGICAL TECH CO LTD, dated 2022).

This test deals with T1, 人GPRC5D (human G protein-coupled receptor family C group 5 member D) (human, UniProt Q9NZD1 1-345).
T1 construct: also called huGPRC5D; hGPRC5D
Put plainly: flow cytometry, scFv supernatant on HEK293-GPRC5D-ZSGreen1 and H929 cells, APC anti-6xHis. For orientation: Flow cytometry measures light scatter and fluorescence of single cells or particles in a stream.

T1 sequence (Q9NZD1 whole entry): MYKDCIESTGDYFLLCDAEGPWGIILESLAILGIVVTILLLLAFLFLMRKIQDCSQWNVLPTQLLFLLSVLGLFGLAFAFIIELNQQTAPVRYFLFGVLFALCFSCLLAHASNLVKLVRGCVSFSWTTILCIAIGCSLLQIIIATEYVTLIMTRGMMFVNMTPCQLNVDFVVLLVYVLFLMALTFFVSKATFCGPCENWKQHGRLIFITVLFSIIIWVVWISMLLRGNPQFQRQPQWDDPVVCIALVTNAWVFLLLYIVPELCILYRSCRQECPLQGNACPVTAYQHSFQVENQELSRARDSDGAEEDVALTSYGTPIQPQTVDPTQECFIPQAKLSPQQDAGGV

B1: HTS0371 scFv (scFv, V domains shown)
VH: EVQLQQSGPELVKPGASVKMSCKASGYTFTSYVMHWVKQKPGQGLEWIGYINPYNDGTKYNEKFKGKATLTSDKSSSTAYMELSSLTSEDSAVYYCARGGKLNWYFDVWGAGTTVTVSS
VL: NIVMTQSPASLAVSLGQRATISCRASESVDSYGNSFMHWYQQKPGQPPKLLIYLASNLESGVPARFSGSGSRTDFTLTIDPVEADDAATYYCQQNNEDPYTFGGGTKLEIN
notes: Tested as one scFv chain in E. coli supernatant, found with an anti-6xHis antibody
Turning to B1, the binding result is “binds”.

B2: HTS0372 scFv (scFv, V domains shown)
VH: EVQLQQSGPELVKPGASMKISCKASGYSFTGYTMNWVKQSHGKNLEWIGLINPYNGRTIYNQKFKGKATLTVDKSSSTAYMELLSLTSEDSAVYYCARVALRYAMDYWGQGTSLTVSS
VL: DIVMTQSQKFMSTSVGDRVSVTCKASQNVGTNVAWYQQKPGQSPKALIYSASYRYSGVPDRFTGSGSGTDFTLTISNVQSEDLAEYFCQQYNSYPLTFGAGTKLEIN
notes: as for B1
For the molecule B2, the binding result was “binds”.

B3: HTS0375 scFv (scFv, V domains shown)
VH: EVQLQQSGPELVKPGASMKISCKASGYSFTGYTMNWVKQSHGKNLEWIGLINPYNGRTIYNQKFKGKATLTVDKSSSTAYMELLSLTSEDSAVYYCARVALRYAMDYWGQGTSLTVSS
VL: SIVMTQSQKFMSTSVGDKVSVTCKASQSVYTNVAWYQQKPGQSPKSLIYSASYRYNGVPDRFTGSGSGTDFTLTISNVQSEDLAEYFCQQYNSYPVTFGAGTKLEIK
notes: as for B1
Consider B3, for which the binding result is reported as “binds”.

B4: HTS0370 scFv (scFv, V domains shown)
VH: EVQLQQSGAELMKPGASVKISCKATGYTFSSYWMEWVKQRPGLGLEWIGQILPGSSYTNYNDKFKGKATFTADTSSNTAYMQLSSLTSEDSAVYYCAKKGGPIYYGNRPFYYAMDYWGQGTSVTVSS
VL: NIMMTQTPKFLLVSAGDRVTITCKASQSVSNDVAWYQQKPGQSPKLQIYYASNRYTGVPDRFTGSGYGTDFTFTISTVQAEDLAVYFCQQDYSSPLTFGAGTKLEIK
notes: as for B1
For the molecule B4, the binding result was “binds”.

B5: HTS0373 scFv (scFv, V domains shown)
VH: EVQLQQSGPELVKPGASMKISCKASGYSFAGYTVNWVKQSHGKNLEWIGLINPYNGGTTYTPKFKDKATLTVDKSSSTAYMELLSLTSEDSAVYYCTRGGFYRYDFDFWGQGTSVTVSS
VL: DILMTQSPSSLSASLGERVSLTCRASQEISGYLSWLQQKPDGTIKRLIYAASTLDSGVPKRFSGSRSGSDYSLTISSLESEDFADYYCLQYASYPFTFGSGTKLEMK
notes: as for B1
With B5, the binding result was “binds”.

B6: HTS0374 scFv (scFv, V domains shown)
VH: QVQLQQSGPELVKPGTSMKISCKASGYSFTGYTVNWVKQSHGKNLEWIGLINPYNGGTTYTPKFKDKATLTVDKSSSTAYMELLSLTSEDSAVYYCTRGGFYRYDFDFWGQGTSLTVSS
VL: EIQMTQSPSSLSASLGERVSLTCRASQDIGSSLNWLQQEPDGTIKRLIYATSSLDSGVPKRFSGSRSGSDYSLTISSLESEDFVDYYCLQYASSPYTFGGGTKLEMK
notes: as for B1
In the case of B6, the binding result was “binds”.
